According to the supplement of paper PMC10126150:
± gives the standard deviation of the averaged measurements.

test system: ATP; assay: switch fluorescence ratio, 500 uM ATP over buffer (Cy3 cluster intensity, sum of 5 cycles each) (fold (ratio)); higher = stronger signal-on switching upon ATP binding; sequences stand for … in TCGTCGGCAGCGTCAGATGTGTATAAGAGACAGTTTTTTTTTTTTTTTTTTTTTTTTT…TC; details: aptamer strand: ATP DNA aptamer (quencher-CACCTGGGGGAGTATTGCGGAGGAAGG + anchor), 100 nM annealed; ATP concentration: 500 uM
How it was run: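 Clusters carrying Cy3-labelled switching strands on a modified Illumina MiSeq flow-cell were annealed to 100 nM quencher-labelled ATP aptamer and imaged in selection buffer. They were imaged again after 15 min with 500 uM ATP at 22 °C, over five buffer/ATP cycles with NaOH stripping and re-annealing in between. For each cluster, the fluorescence ratio is the summed Cy3 intensity of the target cycles divided by that of the buffer cycles, averaged per switch-domain sequence. Clusters outside 100-1000 RFU were left out.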
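Also: ATP exposure 15 min at 22 °C before imaging.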

Sequence | switch fluorescence ratio
AGGATGGTAC | 1.03 ± 0.015
AGGATGTAGG | 1.02 ± 0.035
AGGATGTTTT | 0.995 ± 0.039
AGGATTAAAT | 0.987 ± 0.026
AGGATTGTTG | 0.994 ± 0.07
AGGATTTATG | 0.962 ± 0.021
AGGATTTT | 0.955 ± 0.066
AGGATTTTTC | 1.03 ± 0.044
AGGATTTTTT | 1.003 ± 0.0094
AGGCAACTAG | 1.05 ± 0.027
AGGCACCATC | 1.06 ± 0.045
AGGCACCGGT | 1.04 ± 0.0041
AGGCACGGGC | 1.0064 ± 0.001
AGGCACTACA | 1.017 ± 0.0064
AGGCAGATAG | 1.04 ± 0.025
AGGCAGCTAT | 1.05 ± 0.038
AGGCAGGAGG | 1 ± 0.015
AGGCAGGGGG | 1.03 ± 0.021
AGGCATCTGG | 0.994 ± 0.011
AGGCCACTCG | 0.978 ± 0.0036
AGGCCAGCTG | 0.993 ± 0.062
AGGCCAGGCG | 1.02 ± 0.051
AGGCCAGTTG | 1.02 ± 0.012
AGGCCCGTTA | 0.9957 ± 0.0027
AGGCCGGCAA | 1.02 ± 0.045
AGGCCGGTGA | 1.01 ± 0.018

Sequence | switch fluorescence ratio
AGGCCTTCAG | 0.9915 ± 0.0083
AGGCCTTGGC | 1.018 ± 0.0039
AGGCCTTGTG | 0.985 ± 0.025
AGGCCTTTTG | 0.956 ± 0.033
AGGCGCGTGG | 1.03 ± 0.013
AGGCGCTGGG | 0.999 ± 0.028
AGGCGGATCG | 0.99 ± 0.085
AGGCGGCGAG | 1 ± 0.024
AGGCGGGTGC | 1.04 ± 0.095
AGGCGGGTTG | 0.993 ± 0.026
AGGCGGTGGG | 1.044 ± 0.0059
AGGCGTGGGG | 1.03 ± 0.017
AGGCTAGGGC | 0.993 ± 0.022
AGGCTCGTAC | 1.08 ± 0.09
AGGCTGGGGA | 1.01 ± 0.057
AGGCTGTCAC | 0.996 ± 0.013
AGGCTTACCC | 1.01 ± 0.018
AGGCTTGGGT | 0.982 ± 0.024
AGGCTTTCAG | 0.9828 ± 0.0011
AGGCTTTTTC | 0.999 ± 0.024
AGGCTTTTTG | 0.969 ± 0.015
AGGGAAAAAA | 1.01 ± 0.043
AGGGAAAATG | 0.967 ± 0.033
AGGGAAAATT | 0.995 ± 0.011
AGGGAAAGCT | 1.12 ± 0.2
AGGGAAGATA | 0.998 ± 0.014

Sequence | switch fluorescence ratio
AGGGAAGCGG | 0.982 ± 0.047
AGGGAAGGGA | 1 ± 0.013
AGGGAAGTTT | 1.03 ± 0.084
AGGGAATGAA | 1.03 ± 0.085
AGGGAATTAC | 1.022 ± 0.0036
AGGGACACTA | 1.07 ± 0.028
AGGGACAGGG | 1.02 ± 0.05
AGGGACATAT | 1.018 ± 0.006
AGGGACGCTT | 1.14 ± 0.12
AGGGACTGGG | 0.993 ± 0.038
AGGGAGACGG | 1 ± 0.033
AGGGAGCCGG | 0.965 ± 0.03
AGGGAGGAAA | 1 ± 0.036
AGGGAGGCTC | 1 ± 0.057
AGGGAGGGAG | 0.97 ± 0.035
AGGGAGGTGT | 0.997 ± 0.036
AGGGAGTTGG | 0.995 ± 0.032
AGGGATATAT | 0.98 ± 0.011
AGGGATATTT | 1.01 ± 0.033
AGGGATTCGC | 0.997 ± 0.011
AGGGCATAAG | 0.982 ± 0.062
AGGGCATCGG | 1.021 ± 0.0044
AGGGCATTAT | 1.04 ± 0.047
AGGGCCCTCG | 0.9898 ± 0.0036
AGGGCCTCCG | 1.295 ± 0.0091
